Where a chain is given by its changes, count along the chain named. Read-outs that look alike come from different tables or passages of the source. Blank lines part the entries; values can stand above or below the binder they belong to.
Experiments:
recombinant human EpCAM = target: T1, recombinant human EpCAM (human, UniProt P16422 24-265); test: ELISA
T1 construct: also called rhEpCAM
T1 sequence (looked up): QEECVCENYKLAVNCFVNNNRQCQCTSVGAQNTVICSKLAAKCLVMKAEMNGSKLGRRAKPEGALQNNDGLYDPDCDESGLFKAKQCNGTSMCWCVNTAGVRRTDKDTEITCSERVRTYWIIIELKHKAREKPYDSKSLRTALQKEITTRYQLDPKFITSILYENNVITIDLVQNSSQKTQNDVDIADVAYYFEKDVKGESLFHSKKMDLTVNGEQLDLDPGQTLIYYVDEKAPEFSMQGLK

[1] = target: T2, recombinant human IGFBP-1 (human, UniProt P08833 26-259); test: ELISA
T2 construct: also called rhIGFB-1
T2 sequence (looked up): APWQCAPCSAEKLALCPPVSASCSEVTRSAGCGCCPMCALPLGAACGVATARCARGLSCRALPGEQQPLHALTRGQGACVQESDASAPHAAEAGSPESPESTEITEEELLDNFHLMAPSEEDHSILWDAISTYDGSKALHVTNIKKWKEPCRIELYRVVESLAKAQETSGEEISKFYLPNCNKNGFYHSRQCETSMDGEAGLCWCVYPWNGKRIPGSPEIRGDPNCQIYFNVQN

[2] = target: T3, recombinant human TROP2 extracellular domain (aa 1-274) comprising His tag (human, UniProt P09758 27-274); test: SPR
T3 construct: Used here for all assays on recombinant human TROP2 (ELISA, immunoblot, SPR, crystal), although only some of them name the catalogue number; also called human recombinant TROP2; recombinant human TROP2 protein; not shown: His tag
T3 sequence: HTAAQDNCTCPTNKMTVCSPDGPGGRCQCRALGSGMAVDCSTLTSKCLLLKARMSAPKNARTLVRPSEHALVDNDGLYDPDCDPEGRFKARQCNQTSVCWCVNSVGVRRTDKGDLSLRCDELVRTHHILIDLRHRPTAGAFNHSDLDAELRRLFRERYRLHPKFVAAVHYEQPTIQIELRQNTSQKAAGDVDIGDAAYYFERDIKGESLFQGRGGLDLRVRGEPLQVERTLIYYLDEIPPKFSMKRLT

[3] = target: T4, recombinant cynomolgus/Rhesus TROP2 full-length extracellular domain (cynomolgus/Rhesus, UniProt P09758 27-274 (human entry)); test: SPR
T4 construct: also called cynomolgus TROP2
T4 chain: T3 sequence with M36V, S67N, I204V

[4] = target: T3, recombinant human TROP2 extracellular …; test: ELISA, coated rh TROP2
Procedure: (§1) Human TROP2 recombinant proteins were coated on 96-well ELISA plates at the concentration of 1 μg/mL. Plates were covered with adhesive plate cover and stored at 4° C. overnight. The next day, plates were washed 3× with washing buffer (PBS with 0.1% Tween™ 20). Plates were blocked with 2% fat-free BSA in washing buffer for 1 hour at 37° C. During the incubation time, the TROP2 reference antibodies, as well as the humanized variants, were diluted in the blocking buffer to the indicated concentrations. […] After blocking, the blocking buffer was removed from the wells and 100 μL of anti-TROP2 sdAbs dilutions were transferred to the corresponding wells. Plates were covered with adhesive plates cover and incubated at 37° C. for 1 hour. During the primary antibody incubation, the secondary antibody (goat anti-human IgG, HRP conjugated) was diluted 1 in 5000 with the blocking buffer. Plates were washed 3× with blocking buffer, followed by secondary antibody incubation for another 1 hour at 37° C. After the secondary antibody incubation, plates were washed 3× with washing buffer and added with 100 μL of ELISA chemiluminescent substrate (Thermofisher). The luminescence signal was detected by SpectraMax i3x at […].

[5] = target: T3, recombinant human TROP2 extracellular …; test: ELISA, coated rh TROP2; remark: listed apart in the source
Procedure: as §1

[6] = target: T3, recombinant human TROP2 extracellular …; test: competitive ELISA on coated recombinant human TROP2, competitor KD002-His (14285.7 pM per text), anti-His-HRP
Procedure: (§2) The epitope characterization was assessed by competitive ELISA (FIG. 8 and FIG. 9). Microplates were coated with human recombinant TROP2 at 4° C. overnight. After washing, plates were blocked with blocking buffer (PBS+2% BSA), for 1 hour at room temperature. Meanwhile, the dilution for anti-TROP2 VHH sdAbs was prepared with blocking buffer making two different dilutions depending on the tag. For sdAbs with His tag, the antibody was diluted to 28571.4 pM. For sdAbs without tag, antibodies were serially diluted from 2857142.9 pM to 0.29 pM (8 dilutions, 10×). After that, equal volume of the his-tagged sdAbs and serial diluted non-tagged sdAbs were mixed, to make the final concentration of his-tagged sdAbs 14285.7 pM and non-tagged sdAbs from 1428571.4 pM to 0.14 pM. After washing two times, the mixed antibody contents were added into the wells and the plates were incubated for 2 hours at room temperature. The HRP-conjugated anti-6× His was diluted to 1:5000 and added to the wells after washing three times. Any unbound conjugate was removed by washing after 1 hour incubation at room temperature, and the colorimetric reaction was performed by adding the same volume of Supersignal ELISA Pico Luminol/Enhancer and SuperSignal ELISA Pico Stable Peroxide Solution and detected on SpectraMax i3x Microplate Reader. Positive and negative controls were included in each plate.

[7] = target: T3, recombinant human TROP2 extracellular …; test: competitive ELISA on coated recombinant human TROP2, competitor KD003-His (14285.7 pM per text), anti-His-HRP
Procedure: as §2

[8] = target: T3, recombinant human TROP2 extracellular …; test: ELISA, coated rh TROP2, normalized to KD005

B1: KD007 (antibody, human IgG1, V domains shown)
VH: QVQLQESGGGLVQPGGSLRLSCAASGFAFSFYAMAWYRQAPGKQRDMVATITAYGNTNYADSVKGRFTTSRDNAKNTVYLQMNSLKPEDTAVYVCNANLPSASHNYWGQGTQVTVSS
notes: also called anti-TROP2 sdAb KD007
binding result (recombinant human EpCAM): no binding | binding result [1]: no binding

B2: KD002 (antibody, human IgG1, V domains shown)
VH: QVQLQESGGGMVQVGGSLRLSCAASGFPFSSADMSWVRQAPGKGPEWVSYINADGSKTYYPDSVKGRFTISRDNAKNTLYLLMNNLKPEDTALYRCARAKLTDTHYVEDYWGQGTQVTVSS
notes: also called anti-TROP2 sdAb KD002
Kd [2]: 0.0432 nM | Kd [3]: 0.0811 nM | EC50 [4]: 0.07 nM | EC50 [5]: 0.055 nM | EC50% to KD005 [5]: 0.688 ratio to KD005 | IC50 (read off the curve) [6]: ~60 nM | IC50 (read off the curve) [7]: ~60 nM

B3: KD003 (antibody, human IgG1, V domains shown)
VH: B2 VH with V14P, P28T, S31N, A32Y, D54G, K57N, Y59D, T78M
notes: also called anti-TROP2 sdAb KD003
Kd [2]: 0.0893 nM | Kd [3]: 0.169 nM | IC50 (read off the curve) [6]: ~40 nM | IC50 (read off the curve) [7]: ~30 nM

B4: KD001 (antibody, human IgG1, V domains shown)
VH: QVQLQESGGGMVHPGGSLRLSCAASGFTFSGSDMSWVRQAPGKGPEWVSYITSGGTTYYPDSVKGRFTISRDNAKNTLYLQMNSLTPDDTALYRCAKARLTDSHYVEDAWGQGTQVTVSS
notes: also called anti-TROP2 sdAb KD001
Kd [2]: 0.0826 nM | Kd [3]: 0.0257 nM | IC50 (read off the curve) [6]: ~40 nM | IC50 (read off the curve) [7]: ~40 nM

The remaining binders from weak to strong by Kd [2], led by results:

Kd [2]: 0.0294 nM | Kd [3]: 0.0358 nM | IC50 (read off the curve) [6]: ~40 nM | IC50 (read off the curve) [7]: ~40 nM
B5: KD004 (antibody, human IgG1, V domains shown)
VH: B4 VH with M11L, H13Q, G16R, S53G, G54S, I69T, T77M, T86K
notes: also called anti-TROP2 sdAb KD004

Kd [2]: 0.0268 nM | Kd [3]: 0.0597 nM | EC50 [5]: 0.08 nM | EC50% to KD005 [5]: 1 ratio to KD005 | EC50 relative to KD005 [8]: 1 ratio to KD005 | IC50 (read off the curve) [6]: ~40 nM | IC50 (read off the curve) [7]: ~40 nM
B6: KD005 (antibody, human IgG1, V domains shown)
VH: B4 VH with M11L, H13E, P14A, T86K, A98S
notes: also called anti-TROP2 sdAb KD005

From US20240360242A1 (KISOJI BIOTECHNOLOGY, published 2024)
